Reference: US20140249076A1, “AMYLIN-CALCITONIN CHIMERIC PEPTIDES CONJUGATED TO DURATION ENHANCING MOIETIES” (AMYLIN PHARMACEUTICALS, LLC, priority 2011, published 2014)
Numbered stars: 1 amine (or outer) side, 2 acyl side, 3 side chain; on linkers, the order of the positions; unused ones are H or OH. Side chains are listed from the residue outwards. Ends that are not written are not given here. γGlu = O=C(O)[C@H](CCC(=O)[*:2])N[*:1]

Key:
[1] = molecular target: rat C1a calcitonin receptor (rat) (UniProt P32214); test: displacement of 125I-human calcitonin from C1a-HEK cell membranes
[2] = molecular target: CGRP receptor (SK-N-MC cell membranes) (UniProt Q16602); test: displacement of 125I-human CGRP from SK-N-MC cell membranes
Chain of CGRP receptor (SK-N-MC cell membranes) (Q16602 23-461, chain 1 of 2): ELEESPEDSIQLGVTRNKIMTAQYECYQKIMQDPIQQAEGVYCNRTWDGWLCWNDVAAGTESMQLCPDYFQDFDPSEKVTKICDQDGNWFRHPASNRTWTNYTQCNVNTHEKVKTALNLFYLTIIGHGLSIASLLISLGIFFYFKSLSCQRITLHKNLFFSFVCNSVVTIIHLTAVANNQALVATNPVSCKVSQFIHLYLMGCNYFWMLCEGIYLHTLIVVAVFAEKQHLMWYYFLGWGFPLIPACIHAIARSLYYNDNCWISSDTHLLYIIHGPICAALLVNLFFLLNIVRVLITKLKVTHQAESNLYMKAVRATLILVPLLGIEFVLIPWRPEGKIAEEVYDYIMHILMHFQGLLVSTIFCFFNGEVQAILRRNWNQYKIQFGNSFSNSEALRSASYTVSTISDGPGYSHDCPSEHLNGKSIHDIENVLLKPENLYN
Chain of CGRP receptor (SK-N-MC cell membranes) (O60894 27-148, chain 2 of 2, further chain): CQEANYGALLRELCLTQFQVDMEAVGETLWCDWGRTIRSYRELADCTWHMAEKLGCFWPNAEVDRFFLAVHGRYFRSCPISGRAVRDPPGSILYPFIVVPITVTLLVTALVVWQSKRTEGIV

[3] = molecular target: amylin receptor (RNA membranes); test: displacement of 125I-rat amylin from RNA membranes

B1: Cmpd 192 ([K^1ε-(γ-Glu(Nα-C16-Chain))]-Cmpd 17) (peptide)
peptide: K([γGlu-C16‑Chain])CNTATCALQRLAQELHRLQTYPRTNVGSNTY-NH2
modifications: ends and bridges not checked
[1]
  IC50: 0.07 nM

B2: Cmpd 17 (peptide)
peptide: KCNTATCALQRLAQELHRLQTYPRTNVGSNTY-NH2
modifications: ends and bridges not checked
[1]
  IC50: 0.095 nM

B3: Cmpd 193 ([K^11ε(γ-Glu(Nα-C16-Chain))]-Cmpd 17) (peptide)
peptide: KCNTATCALQK([γGlu-C16‑Chain])LAQELHRLQTYPRTNVGSNTY-NH2
modifications: ends and bridges not checked
[2]
  IC50: 46.5 nM
[1]
  IC50: 0.168 nM
[3]
  IC50: 0.73 nM

B4: Cmpd 195 (Kε-(γ-Glu(Nα-C16-Chain))-Cmpd 17) (peptide)
peptide: K([γGlu-C16‑Chain])KCNTATCALQRLAQELHRLQTYPRTNVGSNTY-NH2
modifications: ends and bridges not checked
[1]
  IC50: 0.046 nM

B5: Cmpd 189 ([K^26ε-(γ-Glu(Nα-C16-Chain))]-Cmpd 17) (peptide)
peptide: KCNTATCALQRLAQELHRLQTYPRTK([γGlu-C16‑Chain])VGSNTY-NH2
modifications: ends and bridges not checked
[2]
  IC50: 75 nM
[1]
  IC50: 1.49 nM
[3]
  IC50: 4.01 nM

B6: Cmpd 186 ([K^18ε-(γ-Glu(Nα-C16-Chain))]-Cmpd 17) (peptide)
peptide: KCNTATCALQRLAQELHK([γGlu-C16‑Chain])LQTYPRTNVGSNTY-NH2
modifications: ends and bridges not checked
[2]
  IC50: 26.3 nM
[1]
  IC50: 1.07 nM
[3]
  IC50: 0.806 nM

B7: Cmpd 188 ([K^24ε-(γ-Glu(Nα-C16-Chain))]-Cmpd 17) (peptide)
peptide: KCNTATCALQRLAQELHRLQTYPK([γGlu-C16‑Chain])TNVGSNTY-NH2
modifications: ends and bridges not checked
[2]
  IC50: 100 nM
[1]
  IC50: 0.898 nM
[3]
  IC50: 1.61 nM

B8: Cmpd 187 ([K^21ε-(γ-Glu(Nα-C16-Chain))]-Cmpd 17) (peptide)
peptide: KCNTATCALQRLAQELHRLQK([γGlu-C16‑Chain])YPRTNVGSNTY-NH2
modifications: ends and bridges not checked
[2]
  IC50: 0.77 nM
[1]
  IC50: 0.151 nM
[3]
  IC50: 0.446 nM
